Patent US20020049303A1

Target: recombinant memapsin 2 (M2pd), auto-activated from pro-M2pd at pH 4.0 (human) (UniProt P56817)
Experiment: cell-based or functional assay

Chain of recombinant memapsin 2 (M2pd), auto-activated from pro-M2pd at pH 4.0 (human) (P56817 25-419 limits assumed): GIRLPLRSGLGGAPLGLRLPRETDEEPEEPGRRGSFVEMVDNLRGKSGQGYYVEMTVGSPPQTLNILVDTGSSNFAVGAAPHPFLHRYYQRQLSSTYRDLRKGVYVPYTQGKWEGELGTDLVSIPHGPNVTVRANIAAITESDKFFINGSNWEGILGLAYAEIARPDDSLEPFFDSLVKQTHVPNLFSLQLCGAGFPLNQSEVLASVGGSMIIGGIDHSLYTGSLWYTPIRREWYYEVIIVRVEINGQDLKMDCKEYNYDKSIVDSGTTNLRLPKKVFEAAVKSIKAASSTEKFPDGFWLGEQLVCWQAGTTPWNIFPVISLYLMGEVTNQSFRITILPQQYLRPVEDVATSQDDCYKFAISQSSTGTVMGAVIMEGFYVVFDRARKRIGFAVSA

Pepstatin A (peptide)
inhibition of M2pd activity (IC50): 300 µM
